Test results: the supplement of paper PMC9170038

What was measured:
MS2 coat protein = assay: apparent KD of MS2 coat protein; higher = weaker reporter binding; details: Eterna round: R107
Experimental: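 RNA-MaP round R107: designed RNA switches with theophylline, tryptophan, arginine or FMN aptamers are transcribed on-chip within common flanks. They are titrated with SNAP-549-labelled MS2 coat protein in RNA-MaP buffer (100 mM Tris pH 7.5, 80 mM KCl, 4 mM MgCl2), without ligand or with the indicated ligand. Median apparent KD per design.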

[1] = tested on: K4 kissing-loop RNA reporter; assay: apparent KD of K4 kissing-loop reporter; higher = weaker reporter binding; details: Eterna round: R107;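 note: bound reporter read as fluorescence of individual clusters on recovered sequencing chips by microscopy, with normalized cluster intensities fitted with a binding model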
Experimental: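 RNA-MaP round R107: designed RNA switches with theophylline, tryptophan, arginine or FMN aptamers are transcribed on-chip within common flanks. They are titrated with a labelled K4 kissing-loop RNA reporter in RNA-MaP buffer (100 mM Tris pH 7.5, 80 mM KCl, 4 mM MgCl2), without ligand or with the indicated ligand. Median apparent KD per design.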

[2] = input ligand: theophylline 20 uM
[3] = input ligand: tryptophan 2.4 mM
[4] = input ligand: theophylline 2 mM

With “AAGAGACAUGAGGAUCACCCAUGUGUUGAUACCAGAAACACAAAGUUCCCUUGGCAGCAAAUCUGAGCGAAACGAUCUAGAGCGC [theeternabot_sameState_MS2_Theo_A_30]” the “apparent KD of MS2 coat protein” value (MS2 coat protein; input ligand: arginine 13.2 mM) was 43.3 nM, the “apparent KD of MS2 coat protein” value (MS2 coat protein; [2]) was 84.9 nM and the “apparent KD of MS2 coat protein” value (MS2 coat protein; [3]) was 70.6 nM.
For “AAGAUACUCUGAAGGAGCGGCAUAAAACAUGAGGAUCACCCAUGUGCGCGGGUGUAAUUAUGCCAGGUAGGUCGCAGAGUAUUUA [#03 Same State - Arginine B]”, the “apparent KD of MS2 coat protein” value (MS2 coat protein; input ligand: arginine 13.2 mM) was 168 nM, the “apparent KD of MS2 coat protein” value (MS2 coat protein; input ligand: none) was 401 nM and the “apparent KD of MS2 coat protein” value (MS2 coat protein; [2]) was 373 nM. The “apparent KD of MS2 coat protein” value (MS2 coat protein; [4]) was 629 nM and the “apparent KD of MS2 coat protein” value (MS2 coat protein; [3]) was 412 nM.
With “AAGCGCACAUGAGGAUCACCCAUGUGCGGCCGAGGACCGGUACGGCCGCCACUCGGAACUAGAAAUAGGAACGGGUAGUGCGCAA [TryptophanA Sol_1]” the “apparent KD of MS2 coat protein” value (MS2 coat protein; input ligand: arginine 13.2 mM) was 10.6 nM, the “apparent KD of MS2 coat protein” value (MS2 coat protein; input ligand: none) was 11.7 nM and the “apparent KD of MS2 coat protein” value (MS2 coat protein; [2]) was 13.3 nM. The “apparent KD of MS2 coat protein” value (MS2 coat protein; [4]) was 13.6 nM and the “apparent KD of MS2 coat protein” value (MS2 coat protein; [3]) was 10.9 nM.
In the case of “AAGCUGCCAAGAACAUGGGUGAAAUGUGAUACCAGCUAGGAAACUAGCCCUUGGCAGCACAUGAGGAUCACCCAUGUAAUAAUAA [(T)'-(M)'-(T1)-(T2)-(M1)-(M2)_Design2_2/19/17]”, the “apparent KD of MS2 coat protein” value (MS2 coat protein; input ligand: arginine 13.2 mM) is reported as 75.7 nM, the “apparent KD of MS2 coat protein” value (MS2 coat protein; [2]) is reported as 264 nM and the “apparent KD of MS2 coat protein” value (MS2 coat protein; [3]) is reported as 377 nM.
For “AAGGGUGAGUCUCUAAUCCGUUUGACGGAUACCAGCGAGAGAUAUCGCCCUUGGCAGCCGACGACAUGAGGAUCACCCAUGUAAA [Exclusion - Theophylline A]”, the “apparent KD of MS2 coat protein” value (MS2 coat protein; input ligand: arginine 13.2 mM) was 17 nM, the “apparent KD of MS2 coat protein” value (MS2 coat protein; [2]) was 22 nM and the “apparent KD of MS2 coat protein” value (MS2 coat protein; [3]) was 14 nM.
With “AAGGUAUCACAGAGGUGAUUCAACUGUGAUACCAGCUAGGAAACUAGCCCUUGGCAGCACAUGAGGAUCACCCAUGUAAGAAUAA [(T)'-(M)'-(T1)-(T2)-(M1)-(M2)_Design3_2/19/17]” the “apparent KD of MS2 coat protein” value (MS2 coat protein; input ligand: arginine 13.2 mM) was 36.3 nM, the “apparent KD of MS2 coat protein” value (MS2 coat protein; input ligand: none) was 36.5 nM and the “apparent KD of MS2 coat protein” value (MS2 coat protein; [2]) was 33.6 nM. The “apparent KD of MS2 coat protein” value (MS2 coat protein; [4]) was 128 nM and the “apparent KD of MS2 coat protein” value (MS2 coat protein; [3]) was 37.1 nM.
With “AAGGUGAUCCGUGAUACCAGCUCAACAUGAGGAUCACCCAUGUAACGGACGAAAGUCCGGAGCCCUUGGCAGCACGGUUGCCAAG [(M)'-(Theo1)-(Ms2)-(Theo2)-(M'')-(T2)'_Design1b]” the “apparent KD of MS2 coat protein” value (MS2 coat protein; input ligand: arginine 13.2 mM) was 29.4 nM, the “apparent KD of MS2 coat protein” value (MS2 coat protein; input ligand: none) was 127 nM and the “apparent KD of MS2 coat protein” value (MS2 coat protein; [2]) was 62 nM. For the same sequence, the “apparent KD of MS2 coat protein” value (MS2 coat protein; [4]) was 12.5 nM and the “apparent KD of MS2 coat protein” value (MS2 coat protein; [3]) was 83.8 nM.
For “AAUAACAUGAGGAUCACCCAUGUAAAAGAUACCAGAGUGAUGAUCCUCCCUUGGCAGCUUAAACGCUAUUGGAAACAAUAGCGAA [Mat - Same State Theophlline A - Mod of Eli - D3]”, the “apparent KD of MS2 coat protein” value (MS2 coat protein; input ligand: arginine 13.2 mM) was 54.5 nM, the “apparent KD of MS2 coat protein” value (MS2 coat protein; [2]) was 163 nM and the “apparent KD of MS2 coat protein” value (MS2 coat protein; [3]) was 57.7 nM.
For “UUUUAAAUGUCUGAUACCAGAGAAAAUAUAUGUAGUGAUGUUAUAUACAAAUUAAAUAAGCUCCCUUGGCAGCAGUAUUAAUUUU [AstrosExc-TheB#10]”, the “apparent KD of K4 kissing-loop reporter” value ([1]; input ligand: FMN 200 uM) was 628 nM, the “apparent KD of K4 kissing-loop reporter” value ([1]; input ligand: arginine 13.2 mM) was 694 nM and the “apparent KD of K4 kissing-loop reporter” value ([1]; input ligand: none) was 758 nM. For the same sequence, the “apparent KD of K4 kissing-loop reporter” value [1, 2] was 761 nM and the “apparent KD of K4 kissing-loop reporter” value [1, 3] was 518 nM.
With “UUUUAAUAAAAGGAUACCAGUACAAAUAAAGUACAUUAAUAGUAGAGUGAUGUUCUAAAGUACCCUUGGCAGCUUAGAGUAAGUU [#17 K4 Theophylline B Exclusion]” the “apparent KD of K4 kissing-loop reporter” value ([1]; input ligand: FMN 200 uM) was 120 nM, the “apparent KD of K4 kissing-loop reporter” value ([1]; input ligand: arginine 13.2 mM) was 253 nM and the “apparent KD of K4 kissing-loop reporter” value ([1]; input ligand: none) was 160 nM. The “apparent KD of K4 kissing-loop reporter” value [1, 2] was 228 nM and the “apparent KD of K4 kissing-loop reporter” value [1, 3] was 85.1 nM.
With “UUUUAUUAAUUCUUCUAGUGAUGUUAGAUACGAGGACCGGUACGGCCGCCACUCGCUUAUUGGUUUAUAAAUUUUAUAUUAUUUA [JR_SSTryptoA_Sub016]” the “apparent KD of K4 kissing-loop reporter” value ([1]; input ligand: FMN 200 uM) was 292 nM, the “apparent KD of K4 kissing-loop reporter” value ([1]; input ligand: arginine 13.2 mM) was 296 nM and the “apparent KD of K4 kissing-loop reporter” value ([1]; input ligand: none) was 286 nM. For the same sequence, the “apparent KD of K4 kissing-loop reporter” value [1, 2] was 294 nM and the “apparent KD of K4 kissing-loop reporter” value [1, 3] was 249 nM.
“UUUUGGUUCUGAGGAUAUUCGAAGAAAUAUAGUGAUGUUAUAUAAGGAGGAGGAUGGAGGGAGGAAGGAGAAGGCAGAAGAGGAG [ExFMNB.I]” was tested, and the “apparent KD of K4 kissing-loop reporter” value ([1]; input ligand: FMN 200 uM) was 890 nM, the “apparent KD of K4 kissing-loop reporter” value ([1]; input ligand: arginine 13.2 mM) was 492 nM and the “apparent KD of K4 kissing-loop reporter” value ([1]; input ligand: none) was 700 nM. The “apparent KD of K4 kissing-loop reporter” value [1, 2] was 923 nM and the “apparent KD of K4 kissing-loop reporter” value [1, 3] was 417 nM.
For “UUUUUAAUCGCAGAUACCAGUCCAGAAUGAAUACUAUAGUGAUGUUAUAAUAAAGGGAAGGACCCUUGGCAGCUGUACUAUAUUU [AstrosSsTheB#6]”, the “apparent KD of K4 kissing-loop reporter” value ([1]; input ligand: FMN 200 uM) was 412 nM, the “apparent KD of K4 kissing-loop reporter” value ([1]; input ligand: arginine 13.2 mM) was 308 nM and the “apparent KD of K4 kissing-loop reporter” value ([1]; input ligand: none) was 398 nM. For the same sequence, the “apparent KD of K4 kissing-loop reporter” value [1, 2] was 300 nM and the “apparent KD of K4 kissing-loop reporter” value [1, 3] was 299 nM.
For “UUUUUAUGCAGUGAUGUUGCUAAUAUAACAGAGGAUAUGCAUUAAUGCAGAAGGCUGAAAUACUAUACUUUAAUAUAUUAAAUUU [JR_SSFMNA_Sub015]”, the “apparent KD of K4 kissing-loop reporter” value ([1]; input ligand: FMN 200 uM) was 94.3 nM, the “apparent KD of K4 kissing-loop reporter” value ([1]; input ligand: arginine 13.2 mM) was 132 nM and the “apparent KD of K4 kissing-loop reporter” value ([1]; input ligand: none) was 126 nM. The “apparent KD of K4 kissing-loop reporter” value [1, 2] was 155 nM and the “apparent KD of K4 kissing-loop reporter” value [1, 3] was 99.5 nM.
For “UUUUUAUUCAGUGAUGUUGAAUUUAUAUCAGAGGAUAUGCAUAAAAGCAGAAGGCUGAAAUACUAUACUUUAAUAAAUUAUAUUU [JR_SSFMNA_Sub017]”, the “apparent KD of K4 kissing-loop reporter” value ([1]; input ligand: FMN 200 uM) was 249 nM, the “apparent KD of K4 kissing-loop reporter” value ([1]; input ligand: arginine 13.2 mM) was 326 nM and the “apparent KD of K4 kissing-loop reporter” value ([1]; input ligand: none) was 320 nM. For the same sequence, the “apparent KD of K4 kissing-loop reporter” value [1, 2] was 370 nM and the “apparent KD of K4 kissing-loop reporter” value [1, 3] was 217 nM.
For “UUUUUGGUUUAGAGUGAUGUUCCUUGUUUUCGAGGACCGGUACGGCCGCCACUCGAAAAGAAAAGAAAAGAAAAGAGUGAUGUUU [BDazzled - #1 SS Tryptophan A]”, the “apparent KD of K4 kissing-loop reporter” value ([1]; input ligand: FMN 200 uM) was 342 nM, the “apparent KD of K4 kissing-loop reporter” value ([1]; input ligand: arginine 13.2 mM) was 252 nM and the “apparent KD of K4 kissing-loop reporter” value ([1]; input ligand: none) was 362 nM. The “apparent KD of K4 kissing-loop reporter” value [1, 2] was 311 nM and the “apparent KD of K4 kissing-loop reporter” value [1, 3] was 258 nM.
